Assay results taken from doi:10.1101/2023.07.04.547698 (bioRxiv, 2023).
Positions count from the first letter of the chain named. Each block holds one binder with its values, some of them ahead of it.

Experiments:
[1] = target: human α-synuclein fibrils (Homo sapiens (Human)., UniProt P37840); assay: flow cytometry on fibril-coated beads, competition with monomer
[2] = target: T1, human tau fibrils (HT40, 2N4R) (Homo sapiens, UniProt P10636-8); assay: flow cytometry on fibril-coated beads
human 0N3R tau fibrils = human 0N3R tau fibrils (Homo sapiens, UniProt P10636-2); assay: far-Western, overlay or dot blot
[3] = target: T1, human tau fibrils (HT40, 2N4R); assay: flow cytometry on fibril-coated beads, competition with monomer

B1: H2.3 (antibody, V domains shown)
VH: QVQLQQSGPGLVKPSQTLSLTCAISGDSVSSHSASWNWIRQSPSRGLEWLGRTYYRGKWKTDYAVSVKSRIIINPDTSKNQFSLQLDSVTPEDTAVYFCTRATRGASDYWGQGTLVTVSS
VL: not shown
- binding result [1]: binds

B2: H2.4 (antibody, V domains shown)
VH: B1 VH with G57S, K60H, T61N, V65A, S69G
VL: not shown
- binding result [1]: binds

B3: ATA1 (scFv, V domains shown)
VH: QVQLQQSGPGLLKPSETLSLTCVISGDSVSSNSATWNWIRQSPSRGLEWLGRTYFRSKWYNDYAVSVKSRITINPDTSKNQFSLQLNSATPEDTAVYYCARQMDEGVGFDFWGQGTLVTVSS
VL: EIVLTQSPATLSLSPGERATLSCRASQSVSSYLAWYQQKPGQAPRLLIYDASNRATGIPARFSGSGSGTDFTLTISSLEPEDFAVYYCQQRSNWPPTFGQGTRLEIK
- EC50 [2]: 6.3 nM

Further lines, results first:

- binding result (human 0N3R tau fibrils): binds
B4: ATA1.459.3 (scFv, V domains shown)
VH: B3 VH with A34V, S57R, K58R, E105K
VL: B3 VL with S92H

- binding result [3]: binds
B5: ATA1.458.5 (scFv, V domains shown)
VH: B3 VH with S33F, A34V, S57R
VL: B3 VL with S92H, N93S

- binding result [3]: binds
B6: ATA1.458.3 (scFv, V domains shown)
VH: B3 VH with S31T, S33D, A34V, S57R, V65R
VL: B3 VL with S92H
